Experiments:
[1] = target: human FOLR1/2 chimera 2 (human, UniProt P15328 25-234); test: flow cytometry, transfected HEK293T cells
Protocol: (§1) Chimera 1 SEQ ID No. 67) and 7 ^{∘}Ch7; SEQ ID No. 73) also contain an additional residue change at a separate location. […] HEK293T cells were transfected with hFOLR1, hFOLR2, one of the hFOLR1/2 chimeric constructs ^{∘}FIG. 2B) or single residue mutants ^{∘}FIG. 2C). Binding of VHHs 2HFO19, 2HFO42, 3MFR60, and a mouse anti-FOLR1 monoclonal antibody ^{∘}mAb) was detected using a mouse anti-His tag antibody for the VHHs followed by an anti-mouse-phycoerythrin antibody. All VHHs were tested at a concentration of 200 nM and untransfected cells were used as a negative control. The colors used for the VHHs represent the different CDR3 families; blue: family 1, green: family 3, grey: family 10.
(§2) To identify the exact region in which the VHHs bind to FRα, epitope mapping experiments were performed. Since the VHHs are able to bind human FRα, but not FRβ, we generated seven human FOLR1/2 chimeric constructs where regions of human FOLR1 were replaced by the corresponding human FOLR2 ^{∘}FRβ) regions ^{∘}FIG. 2A): chimera 1 SEQ ID No. 67), chimera 2 ^{∘}SEQ ID No. 68), chimera 3 ^{∘}SEQ ID No. 69), chimera 4 ^{∘}SEQ ID No. 70), chimera 5 ^{∘}SEQ ID No. 71), chimera 6 ^{∘}SEQ ID No. 72) and chimera 7 ^{∘}SEQ ID No. 73). Three additional chimera 1 constructs were made: chimera 1a ^{∘}replacing fragment 31-40; SEQ ID No. 74), chimera 1b ^{∘}replacing fragment 41-50; SEQ ID No. 75) and chimera 1c ^{∘}replacing fragment 51-64; SEQ ID NO. 76). The constructs were transiently transfected into HEK293T cells and dose-dependent binding of the VHHs to the wild-types FRα and FRβ ^{∘}WTs) or the chimeric constructs was assessed via flow cytometry via detection of the tag ^{∘}FIG. 2B). […] Different anti-FRα VHHs were able to bind to cell-expressed FRα-FRβ chimeras to a similar level as WT FRα, with the exception of chimera 4 ^{∘}SEQ ID No. 70) where the binding was completely abolished for all VHHs.

[2] = target: human FOLR1/2 chimera 3 (human, UniProt P15328 25-234); test: flow cytometry, transfected HEK293T cells
Chain of human FOLR1/2 chimera 3 (P15328 other isoform, or with tags, fused parts or gaps mutant limits assumed): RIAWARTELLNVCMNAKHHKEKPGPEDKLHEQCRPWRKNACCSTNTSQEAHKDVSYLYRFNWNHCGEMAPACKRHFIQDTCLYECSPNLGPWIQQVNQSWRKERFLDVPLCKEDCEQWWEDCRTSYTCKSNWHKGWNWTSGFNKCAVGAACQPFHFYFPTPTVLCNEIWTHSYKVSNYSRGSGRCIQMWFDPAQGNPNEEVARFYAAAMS
Protocol: as §1, §2

[3] = target: human FOLR1/2 chimera 5 (human, UniProt P15328 25-234); test: flow cytometry, transfected HEK293T cells
Chain of human FOLR1/2 chimera 5 (P15328 other isoform, or with tags, fused parts or gaps mutant limits assumed): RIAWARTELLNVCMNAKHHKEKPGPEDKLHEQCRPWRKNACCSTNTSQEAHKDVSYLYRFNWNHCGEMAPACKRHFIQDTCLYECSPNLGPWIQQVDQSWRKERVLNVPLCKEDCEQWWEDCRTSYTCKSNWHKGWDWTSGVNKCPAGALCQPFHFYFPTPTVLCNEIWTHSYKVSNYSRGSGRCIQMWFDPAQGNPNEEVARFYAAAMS
Protocol: as §1, §2

[4] = target: human FOLR1/2 chimera 6 (human, UniProt P15328 25-234); test: flow cytometry, transfected HEK293T cells
Chain of human FOLR1/2 chimera 6 (P15328 other isoform, or with tags, fused parts or gaps mutant limits assumed): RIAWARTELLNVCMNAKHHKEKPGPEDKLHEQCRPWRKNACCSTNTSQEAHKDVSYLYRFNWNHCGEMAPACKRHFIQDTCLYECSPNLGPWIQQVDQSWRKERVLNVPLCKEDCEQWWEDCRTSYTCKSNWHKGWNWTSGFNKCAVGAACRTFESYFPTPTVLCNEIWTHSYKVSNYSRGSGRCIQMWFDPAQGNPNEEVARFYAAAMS
Protocol: as §1, §2

[5] = target: T1, human FOLR1/2 chimera 7 (human, UniProt P15328 25-234); test: flow cytometry, transfected HEK293T cells
T1 construct: also called Ch7
T1 sequence (P15328 other isoform, or with tags, fused parts or gaps mutant limits assumed): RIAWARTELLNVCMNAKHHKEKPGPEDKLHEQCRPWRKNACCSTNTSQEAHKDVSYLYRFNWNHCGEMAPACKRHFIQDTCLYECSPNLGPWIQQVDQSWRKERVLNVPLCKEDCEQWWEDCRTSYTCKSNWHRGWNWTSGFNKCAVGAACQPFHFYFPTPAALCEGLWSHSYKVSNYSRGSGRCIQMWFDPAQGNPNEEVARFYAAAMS
Protocol: as §1, §2

[6] = target: T2, human FOLR1/2 chimera 1a (replacing fragment 31-40) (human, UniProt P15328 25-234); test: flow cytometry, transfected HEK293T cells
T2 construct: Transiently expressed on HEK293T cells
T2 sequence (P15328 other isoform, or with tags, fused parts or gaps mutant limits assumed): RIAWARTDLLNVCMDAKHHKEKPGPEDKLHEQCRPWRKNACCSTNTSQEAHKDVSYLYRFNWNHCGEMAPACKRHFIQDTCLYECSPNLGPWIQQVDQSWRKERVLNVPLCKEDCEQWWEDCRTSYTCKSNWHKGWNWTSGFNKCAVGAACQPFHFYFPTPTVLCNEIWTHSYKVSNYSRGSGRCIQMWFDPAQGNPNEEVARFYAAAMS
Protocol: as §1, §2

[7] = target: T3, human FOLR1/2 chimera 1b (replacing fragment 41-50) (human, UniProt P15328 25-234); test: flow cytometry, transfected HEK293T cells
T3 construct: Transiently expressed on HEK293T cells
T3 sequence (P15328 other isoform, or with tags, fused parts or gaps mutant limits assumed): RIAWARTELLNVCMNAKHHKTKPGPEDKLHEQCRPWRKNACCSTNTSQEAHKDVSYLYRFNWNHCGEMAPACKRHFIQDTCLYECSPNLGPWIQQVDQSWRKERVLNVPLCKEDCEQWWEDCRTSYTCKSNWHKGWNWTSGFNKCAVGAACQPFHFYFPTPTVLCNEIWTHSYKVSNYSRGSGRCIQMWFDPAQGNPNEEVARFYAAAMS
Protocol: as §1, §2

[8] = target: T4, mouse folate receptor alpha (mFRα), recombinant protein (mouse, UniProt P35846 25-232); test: BLI tandem binning on mouse FRα; competitor (1st association) 2HFO19
T4 construct: Bought recombinant proteins (e.g. biotinylated, Acro Biosystems FO1-M82E9); also called mFOLR1; Ms FOLR1
T4 sequence (P35846 25-232 limits assumed): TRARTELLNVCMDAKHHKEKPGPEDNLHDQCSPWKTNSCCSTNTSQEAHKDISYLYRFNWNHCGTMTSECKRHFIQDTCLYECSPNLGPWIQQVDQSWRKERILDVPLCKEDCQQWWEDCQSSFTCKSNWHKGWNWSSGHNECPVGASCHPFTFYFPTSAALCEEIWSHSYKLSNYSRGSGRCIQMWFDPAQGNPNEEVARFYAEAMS
From the text: (§3) VHHs that share high sequence identity in the CDR3 region, a VHH family, are derived from the same B-cell lineage and diverged from each other due to somatic hypermutation or affinity maturation. Typically, VHHs from the same family recognize the same epitope on the target, but may differ in other characteristics ^{∘}De Genst et al 2006 PNAS 103:4586-4591; De Gents et al 2005 J Biol Chem 280:14114-14121). To study whether the VHHs from the different families bound different epitopes, epitope binning was performed using a tandem binding approach in BLI. One VHH from each family was allowed to bind to mouse FRα on the biosensor, followed by binding of the second VHH ^{∘}Table 4).
(§4) Competition between VHHs from different complementarity determining region ^{∘}CDR) 3 families was assessed in a tandem binding assay using biolayer interferometry ^{∘}BLI). Streptavidin biosensors were loaded with biotinylated mouse FRα ^{∘}Acro Biosystems, Cat.nr. FO1-M82E9), followed by binding of anti-FRα VHHs ^{∘}VHH in first association). The biosensors were then transferred to a solution containing a second VHH mixed 1:1 with the first VHH ^{∘}VHH in second association). Using the FortéBio Data Analysis Software the absolute additional binding signal for the second association on top of the first association was calculated. The data were normalized per VHH in first association using the following formula: ^{∘}signal-self)/^{∘}maximum-self) with self being the value of the VHH in first association in combination with the same VHH in second association.

[9] = target: T4, mouse folate receptor alpha (mFRα), …; test: BLI tandem binning on mouse FRα; competitor (1st association) 2MFR32
From the text: as §3, §4

[10] = target: T4, mouse folate receptor alpha (mFRα), …; test: BLI tandem binning on mouse FRα; competitor (1st association) 3MFR60
From the text: as §3, §4

[11] = target: T5, human FOLR1/2 chimera 4 (human, UniProt P15328 25-234); test: flow cytometry on transiently transfected HEK293T cells, mouse anti-His then anti-mouse-PE (B575-A)
T5 construct: Region of amino acids 140-150 of hFOLR1 replaced by hFOLR2
T5 sequence (P15328 other isoform, or with tags, fused parts or gaps mutant limits assumed): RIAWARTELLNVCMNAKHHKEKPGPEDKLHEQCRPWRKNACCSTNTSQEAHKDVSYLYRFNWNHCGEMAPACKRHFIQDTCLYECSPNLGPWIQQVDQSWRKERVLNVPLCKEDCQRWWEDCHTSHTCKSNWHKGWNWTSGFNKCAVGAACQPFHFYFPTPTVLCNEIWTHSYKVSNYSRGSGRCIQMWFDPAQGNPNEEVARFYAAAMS
Protocol: as §1, §2

Chain of human FOLR1/2 chimera 2 (P15328 other isoform, or with tags, fused parts or gaps mutant limits assumed): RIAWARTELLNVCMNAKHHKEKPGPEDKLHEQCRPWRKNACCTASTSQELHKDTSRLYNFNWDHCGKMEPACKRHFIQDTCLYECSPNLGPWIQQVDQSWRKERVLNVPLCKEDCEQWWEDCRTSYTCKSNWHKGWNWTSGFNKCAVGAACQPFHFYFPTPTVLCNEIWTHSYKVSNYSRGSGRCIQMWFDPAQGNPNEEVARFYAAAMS

Binder	binding result [1]	binding result [2]	binding result [3]	binding result [4]	binding result [5]	binding result [6]	binding result [7]	normalized additional binding in 2nd association [8]	normalized additional binding in 2nd association [9]	normalized additional binding in 2nd association [10]	binding result [11]
VHH 3MFR60 (family 10) (VHH) VHH: QVQLQESGGGLVQAGGSLRVSCAASGIIFSMNGMGWFRQAPGKQRELVASITSGGSTKYADSVKGRFTISRDNAKNTVYLQMNSLKPEDTAVYYCNIQFGSRWSTYWGQGTQVTVSS	binds	binds	binds	binds	binds	binds	binds	6%	75%	0%	no binding (tested: 200 nM)
VHH 2HFO19 (family 1) (VHH, also called Nb19) VHH: QVQLQESGGGLVQPGGSLRVSCAASGFPFSTVYMSWVRQAPGKGLEWVSGINNDGGVIDYADSVKGRFTISRDNAKNTLYLQLNSLKPEDTALYFCARGRSFVATLSSSLRGQGTQVTVSS	binds	binds	binds	binds	binds	binds	binds	0%	100%	-7%	no binding (tested: 200 nM)
VHH 2HFO42 (family 3) (VHH, also called 2HF042; Nb42) VHH: QVQLQESGGGLVQAGGSLRLSCAASGSGFSGMIMGWYRQVPGKQRELVATVTSHGTTNYADSVKGRFTISRDNAKNTVLLQMNSLKPEDTAVYYCNAHFPGIYWGKGTQVTVSS	binds	binds	binds	binds	binds	binds	binds	1%	41%	-2%	no binding (tested: 200 nM)

Reference: US20250304677A1 (VIB VZW, published 2025)
